The subject of experiment [1] is metastatic colorectal cancer patients. Nature of the experiment: Retrospective analysis of anti-angiogenic therapy (bevacizumab) in metastatic colorectal cancer by TME phenotype. It is filed as in vivo, human. The conditions noted are these: A and IS patients. How it is done:
The analysis includes 60 colorectal cancer tumor samples.
To test if TME phenotypes correlate with clinical outcomes when patients are treated with an angiogenesis inhibitor, tumor stroma RNA gene signatures are analyzed from archival tissues collected from 60 colorectal cancer patients (30 left-sided, 30 right-sided) using an ANN classifier such as the TME Panel-1 classifier. The correlation between each TME phenotype is tested against clinical outcome data. In A and IS patients, the use of bevacizumab confers gains in comparison to patients classified to IA and ID TME phenotypes: in A and IS patients median PFS and OS shifts to 15 months and 39 months, respectively. Progression-free survival and OS data in IA and ID patients are consistent with historical values. Overall, the A and IS TME phenotypes correlate specifically with improved clinical outcomes with angiogenesis inhibitors and has a predictive effect with respect to PFS.

In experiment [2] the test system is stage III or IV of ovarian cancer. The conditions noted are these: ovarian cancer stage III or IV after initial surgery; bevacizumab added to carboplatin and paclitaxel versus without; cited from earlier work.
Another experiment has as its system MDSC functions. The conditions noted are these: pre-clinical models; cited from earlier work.
In experiment [3] the test system is advanced solid tumors in colorectal, triple-negative breast cancer, gastric, and ovarian cancers. Nature of the experiment: Phase 2 open-label basket study of navicixizumab monotherapy or with paclitaxel or irinotecan, retrospective analysis by TME phenotype. The format is in vivo, human. The conditions noted are these: combined A and IS groups. How it is done: A retrospective analysis of a signal-finding Phase 2 clinical trial is conducted. Patient samples from thirty patients in a phase 2, multicenter, open-label basket study of navicixizumab monotherapy or in combination with the chemotherapeutics paclitaxel or irinotecan in patients with advanced solid tumors in colorectal, triple-negative breast cancer, gastric, and ovarian cancers. Patients in the combined A and IS groups that received navicixizumab monotherapy have an ORR greater than 40%. Patients in the combined A and IS groups that receive navicixizumab and chemotherapy have an ORR greater than 50%.

The subject of experiment [4] is colorectal cancer patients. Nature of the experiment: Clinical trial of navicixizumab and chemotherapy in colorectal cancer, outcome by TME phenotype. It is filed as in vivo, human. How it is done:
A clinical trial is run to show benefit of anti-angiogenesis therapy in CRC by identifying patients based on their stromal phenotypes. RNA gene signatures are analyzed from biopsy samples prior to treatment with navicixizumab and chemotherapy (such as paclitaxel, FOLFOX, FOLFIRI, etc.). The stromal phenotypes are correlated with ORR, PFS, and OS. The analysis includes 40 colorectal cancer patients with treated with navicizumab and chemotherapy in the first-line setting.

Experiment [5] concerns non-small cell lung cancer (NSCLC). The experiment is described as follows: Retrospective ANN analysis of Phase 3 trial of tislelizumab with pemetrexed and a platinum agent. The format is in vivo, human. The following applies: biomarker positive group (IA or IS). An excerpt:
A retrospective analysis of 100 RNA signatures from a Phase 3 clinical trial of non-small cell lung cancer (NSCLC) with the anti-PD-1 checkpoint inhibitor tislelizumab in combination with the chemotherapeutic agents pemetrexed and a platinum agent (cisplatin or carboplatin) is run using the ANN method. […] After the retrospective ANN analysis, the biomarker positive group (IA or IS) is shown to have a PFS of 15.0 months with the combination therapy of tislelizumab and chemotherapy.

Experiment [6] shares this test system. The conditions noted are these: cited from earlier work.

Regarding bevacizumab, in experiment [1], the “median OS” value came out at 39 months and the “median PFS” value stood at 15 months. In experiment [2], the Progression-free survival is 18 months.

With `CCCc1nn(C)c2c(=O)[nH]c(-c3cc(S(=O)(=O)N4CCN(C)CC4)ccc3OCC)nc12` [sildenafil], in the experiment with MDSC functions, the “effect on MDSC functions” value is “significantly inhibited the MDSC functions”.

B1: navicixizumab (antibody, chains of the INN, looked up, V domains shown)
VH: QVQLVQSGAEVKKPGASVKISCKASGYSFTAYYIHWVKQAPGQGLEWIGYISNYNRATNYNQKFKGRVTFTTDTSTSTAYMELRSLRSDDTAVYYCARDYDYDVGMDYWGQGTLVTVSS
VL: DIVMTQSPDSLAVSLGERATISCRASESVDNYGISFMKWFQQKPGQPPKLLIYAASNQGSGVPDRFSGSGSGTDFTLTISSLQAEDVAVYYCQQSKEVPWTFGGGTKVEIK
VH2: QVQLVQSGAEVKKPGASVKVSCKASGYTFTNYWMHWVRQAPGQGLEWMGDINPSNGRTSYKEKFKRRVTLSVDKSSSTAYMELSSLRSEDTAVYFCTIHYDDKYYPLMDYWGQGTLVTVSS
VL2: DIVMTQSPDSLAVSLGERATISCRASESVDNYGISFMKWFQQKPGQPPKLLIYAASNQGSGVPDRFSGSGSGTDFTLTISSLQAEDVAVYYCQQSKEVPWTFGGGTKVEIK
notes: anti-VEGF/anti-DLL4 bispecific antibody
Turning to B1, the ORR result in experiment [3] is recorded as “greater than 40%”.

B2: navicixizumab and chemotherapy: anti-VEGF/anti-DLL4 bispecific antibody navicixizumab with chemotherapy (such as paclitaxel, FOLFOX, FOLFIRI, irinotecan) (antibody, chains of the INN, looked up, V domains shown)
VH: QVQLVQSGAEVKKPGASVKISCKASGYSFTAYYIHWVKQAPGQGLEWIGYISNYNRATNYNQKFKGRVTFTTDTSTSTAYMELRSLRSDDTAVYYCARDYDYDVGMDYWGQGTLVTVSS
VL: DIVMTQSPDSLAVSLGERATISCRASESVDNYGISFMKWFQQKPGQPPKLLIYAASNQGSGVPDRFSGSGSGTDFTLTISSLQAEDVAVYYCQQSKEVPWTFGGGTKVEIK
VH2: QVQLVQSGAEVKKPGASVKVSCKASGYTFTNYWMHWVRQAPGQGLEWMGDINPSNGRTSYKEKFKRRVTLSVDKSSSTAYMELSSLRSEDTAVYFCTIHYDDKYYPLMDYWGQGTLVTVSS
VL2: DIVMTQSPDSLAVSLGERATISCRASESVDNYGISFMKWFQQKPGQPPKLLIYAASNQGSGVPDRFSGSGSGTDFTLTISSLQAEDVAVYYCQQSKEVPWTFGGGTKVEIK
modifications: plus chemotherapy
On to B2, for which the “ORR (%)” value was 90% in experiment [4] (A (n = 10)), 30% in experiment [4] (IA (n = 10)), 45% in experiment [4] (ID (n = 10)) and 80% in experiment [4] (IS (n = 10)). Besides, the “OS (months)” value in experiment [4] (A (n = 10)) is given as 26 months; in experiment [4] (IA (n = 10)), 15 months; in experiment [4] (ID (n = 10)) it was 20 months; in experiment [4] (IS (n = 10)), 25 months. In addition, the “PFS (months)” value in experiment [4] (A (n = 10)) is listed as 15 months; in experiment [4] (IA (n = 10)), 10 months; in experiment [4] (ID (n = 10)), 13 months; in experiment [4] (IS (n = 10)), 16 months. The ORR result in experiment [3] is reported as “greater than 50%”.

B3: tislelizumab plus chemotherapy: anti-PD-1 checkpoint inhibitor tislelizumab with pemetrexed and a platinum agent (cisplatin or carboplatin) (antibody, chains of the INN, looked up)
heavy: QVQLQESGPGLVKPSETLSLTCTVSGFSLTSYGVHWIRQPPGKGLEWIGVIYADGSTNYNPSLKSRVTISKDTSKNQVSLKLSSVTAADTAVYYCARAYGNYWYIDVWGQGTTVTVSSASTKGPSVFPLAPCSRSTSESTAALGCLVKDYFPEPVTVSWNSGALTSGVHTFPAVLQSSGLYSLSSVVTVPSSSLGTKTYTCNVDHKPSNTKVDKRVESKYGPPCPPCPAPPVAGGPSVFLFPPKPKDTLMISRTPEVTCVVVAVSQEDPEVQFNWYVDGVEVHNAKTKPREEQFNSTYRVVSVLTVVHQDWLNGKEYKCKVSNKGLPSSIEKTISKAKGQPREPQVYTLPPSQEEMTKNQVSLTCLVKGFYPSDIAVEWESNGQPENNYKTTPPVLDSDGSFFLYSKLTVDKSRWQEGNVFSCSVMHEALHNHYTQKSLSLSLG
light: DIVMTQSPDSLAVSLGERATINCKSSESVSNDVAWYQQKPGQPPKLLINYAFHRFTGVPDRFSGSGYGTDFTLTISSLQAEDVAVYYCHQAYSSPYTFGQGTKLEIKRTVAAPSVFIFPPSDEQLKSGTASVVCLLNNFYPREAKVQWKVDNALQSGNSQESVTEQDSKDSTYSLSSTLTLSKADYEKHKVYACEVTHQGLSSPVTKSFNRGEC
modifications: plus pemetrexed and platinum chemotherapy
On to B3, for which the PFS in experiment [5] is listed as 15.0 months. In addition, the “hazard ratio (PFS)” value in experiment [6] (tislelizumab plus chemotherapy versus chemotherapy alone) is 0.645. Also, the “median PFS” value in experiment [6] (without stratification into stromal phenotypes) is on record as 9.7 mo.

The values above are taken from patent US20240344138A1, “TARGETED THERAPIES IN CANCER” (Feng Biosciences, Inc, priority 2021, published 2024).
